# Experimental data from patent US20230250193A1 (PROVIVA THERAPEUTICS HONG KONG, published 2023).
# T1: human FAPα (fibroblast activation protein-α) expressed on cells (human, UniProt Q12884 1-760)
# T1 construct: also called cells expressing FAP
# T1 sequence: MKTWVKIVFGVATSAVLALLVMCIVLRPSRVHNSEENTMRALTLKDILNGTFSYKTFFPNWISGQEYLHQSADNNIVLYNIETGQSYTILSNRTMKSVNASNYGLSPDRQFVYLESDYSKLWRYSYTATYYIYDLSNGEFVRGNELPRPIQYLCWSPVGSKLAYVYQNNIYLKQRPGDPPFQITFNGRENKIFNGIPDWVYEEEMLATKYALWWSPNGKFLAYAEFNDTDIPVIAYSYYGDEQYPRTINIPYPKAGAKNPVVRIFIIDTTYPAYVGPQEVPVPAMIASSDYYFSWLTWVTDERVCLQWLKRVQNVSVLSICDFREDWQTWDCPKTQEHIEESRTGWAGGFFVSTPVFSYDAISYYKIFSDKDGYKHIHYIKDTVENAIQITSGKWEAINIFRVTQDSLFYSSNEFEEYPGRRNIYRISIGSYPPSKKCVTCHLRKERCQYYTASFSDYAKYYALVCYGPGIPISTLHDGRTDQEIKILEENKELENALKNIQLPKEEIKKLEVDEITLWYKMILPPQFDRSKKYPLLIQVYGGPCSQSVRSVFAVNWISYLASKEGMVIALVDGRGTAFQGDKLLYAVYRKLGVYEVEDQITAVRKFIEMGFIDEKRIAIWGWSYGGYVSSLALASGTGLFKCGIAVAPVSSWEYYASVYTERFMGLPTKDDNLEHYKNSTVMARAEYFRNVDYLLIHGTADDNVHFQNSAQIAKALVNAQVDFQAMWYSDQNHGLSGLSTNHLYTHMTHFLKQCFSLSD
# Target: T1, human FAPα (fibroblast activation …)
# Assay: flow cytometry on FAPα-expressing cells, PE-labeled anti-human IgG detection
# Method: FACS analysis. FACS analysis was performed for purified antibodies. Binding of Expi293 expression supernatant or purified antibodies to FAPα and/or B7H3 expressing cells was determined by flow cytometry. lx […] were incubated for 1 hour at 4° C. with purified antibodies. After washing twice with cold FACS buffer (PBS containing 1% BSA and 0.1% sodium azide), cell surface bound antibody was detected by incubating the cells with phycoerythrin (PE)-labeled anti-human IgG antibody (Jackson Immuno, Cat #109-116-098) for 1 hour at 4° C. Cells were washed twice in FACS buffer and analyzed using Guava EasyCyte HT (Merck Millipore).
binder,measurement,value
"P28832158 (antibody, human IgG1, kappa, V domains shown, Produced in Expi293 cells; also called M-87_G1; VH6.32/VL7.00) VH: QVQLVQSGAEVKKPGASVKVSCKASGYTFTMNIIHWVRQAPGQGLEWMGWIHPGSGAIKYAQKLQGRVTMTTDTSTSTAYMELRSLRSDDTAVYYCARHGGTGRGAMDYWGQGTLVTVSS VL: EIVLTQSPGTLSLSPGERATLSCRASQSVSTSAYSYMHWYQQKPGQAPRLLIYLASNLESGIPDRFSGSGSGTDFTLTISRLEPEDFAVYYCQQSRELPYTFGQGTKLEIKR",binding result,binds
